Reference: patent US6730503B1 (Roche Vitamins Inc., priority 1996, dated 2004)
“And” between values parts separate entries of the source, which are not always exact repeats. Equal entries are not always repeated. “Also recorded” adds a separate entry of the source.

Experiments:
[1] = Substrate specificity of purified enzymes, PMS-DCIP spectrophotometric assay; assay type: biochemical; settings: A′ corrected 1.5-fold (purity about 65%)
In short: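 Cell-free extract, cytosolic (100,000×g supernatant) and membrane fractions from French-press-disrupted cultures assayed in 1.0 ml containing 100 μM DCIP, 1 mM PMS, 50 mM Tris-malate-NaOH pH 8.0 and substrate. Substrate-dependent decrease in DCIP absorbance at 600 nm followed at 25 °C; one unit reduces 1 μmole DCIP/min (ε 15 mM⁻¹).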

[2] = Oxidation product of AADH clones by resting cell reaction followed by TLC analysis; assay type: cell-based, P. putida
In short: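 Pseudomonas putida ATCC 21812 (nalidixic acid resistant) carrying pSSA102R with the Enzyme A gene cassette, selected on agar with 50 μg/ml nalidixic acid and 10 μg/ml tetracycline, was used in a mini resting cell reaction. Product was identified by TLC, with the untransformed host as control.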

[3] = Products of enzyme reactions with purified enzymes, identified by TLC and/or HPLC; assay type: biochemical
[4] = pH stability, 3 hours at 25° C., residual activity by PMS-DCIP assay; assay type: physicochemical; settings: relative to no incubation at pH 8.0
[5] = Thermal stability, 5 minutes, residual activity by PMS-DCIP assay; assay type: physicochemical
Experimental: Table 4 indicates the results of thermal-stabilities of the enzymes. The enzyme (about 0.05 mg/ml) in 25 mM HEPES buffer, pH 7.5, containing 5% sucrose, 0.2 M NaCl, and 5 mM CaCl2 was incubated at temperature indicated in the table (4-60° C.) for 5 minutes, cooled in ice bath and assayed by PMS-DCIP spectrophotometric method. Remaining activity was expressed as relative activity against that obtained by 4° C. incubation.

B1: Enzyme B: recombinant AADH of G. oxydans DSM No. 4025, amino acid sequence SEQ ID NO 8, plasmid pSS31/pSSB103R (protein)
chain: MNPTTLLRTSAAVLLLTAPAAFAQVTPITDELLANPPAGEWINYGRNQENYRHSPLTQITADNVGQLQLVWARGMEAGAVQVTPMIHDGVMYLANPGDVIQALDAQTGDLIWEHRRQLPAVATLNAQGDRKRGVALYGTSLYFSSWDNHLIALDMETGQVVFDVERGSGEDGLTSNTTGPIVANGVIVAGSTCQYSPYGCFISGHDSATGEELWRNHFIPQPGEEGDETWGNDFEARWMTGVWGQITYDPVTNLVFYGSTGVGPASETQRGTPGGTLYGTNTRFAVRPDTGEIVWRHQTLPRDNWDQECTFEMMVANVDVQPSAEMEGLRAINPNAATGERRVLTGAPCKTGTMWSFDAASGEFLWARDTNYTNMIASIDETGLVTVNEDAVLKELDVEYDVCPTFLGGRDWSSAALNPDTGIYFLPLNNACYDIMAVDQEFSALDVYNTSATAKLAPGFENMGRIDAIDISTGRTLWSAERPAANYSPVLSTAGGVVFNGGTDRYFRALSQETGETLWQARLATVATGQAISYELDGVQYIAIGAGGLTYGTQLNAPLAEAIDSTSVGNAIYVFALPQ
modifications: Gluconobacter oxydans; SIGNAL (1)..(23)
Substrate specificity ([1]; 2 mM L-Sorbosone): 73.6 units/mg of purified protein | Substrate specificity ([1]; 50 mM D-Glucose): 943.9 units/mg of purified protein | Substrate specificity ([1]; 50 mM D-Mannitol): 517.4 units/mg of purified protein | Substrate specificity ([1]; 50 mM Isopropanol): 72.3 units/mg of purified protein | Substrate specificity ([1]; 50 mM n-Propanol): 40.0 units/mg of purified protein | Substrate specificity ([1]; 125 mM D-Fructose): 2.1 units/mg of purified protein | Substrate specificity ([1]; 125 mM D-Sorbitol): 130.9 units/mg of purified protein | Substrate specificity ([1]; 125 mM L-Sorbose): 8.4 units/mg of purified protein | Oxidation product of D-glucose [2]: *2Oxidation product of D-glucose by Enzyme B, and Enzyems [A and B] was D-gluconic acid. | Oxidation product of D-sorbitol [2]: L-sorbose | Oxidation product of L-sorbosone [2]: *4Oxidation product of L-sorbosone by Enzymes A, A′, A″, B, and [A and B] was 2KGA. | Product ([3]; substrate D-Gluconic acid): 5-keto-D-gluconic acid and 5-Keto-D-gluconic acid | Product ([3]; substrate D-Glucose): D-gluconate; also recorded: D-Gluconic acid | Product ([3]; substrate D-Mannitol): D-Fructose | Product ([3]; substrate D-Mannoic acid): 5-keto-D-mannoic acid and 5-Keto-D-mannoic acid | Product ([3]; substrate D-Sorbitol): L-Sorbose | Product ([3]; substrate Glycerol): Dihydroxyacetone | Product ([3]; substrate L-Idose): L-Idonic acid | Product ([3]; substrate L-Sorbosone): 2KGA | Relative activity (pH stability) ([4]; incubated at pH 4.0, 3 hours): 25.2% | Relative activity (pH stability) ([4]; incubated at pH 5.0, 3 hours): 56.1% | Relative activity (pH stability) ([4]; incubated at pH 6.0, 3 hours): 100.9% | Relative activity (pH stability) ([4]; incubated at pH 7.0, 3 hours): 101.9% | Relative activity (pH stability) ([4]; incubated at pH 8.0, 3 hours): 114.0% | Relative activity (pH stability) ([4]; incubated at pH 9.0, 3 hours): 101.9% | Relative activity (pH stability) ([4]; incubated at pH 10.0, 3 hours): 85.5% | Relative activity (pH stability) ([4]; incubated at pH 11.0, 3 hours): 70.1% | Relative activity (thermal stability) ([5]; 4° C. for 5 minutes (reference)): 100.0% | Relative activity (thermal stability) ([5]; 20° C. for 5 minutes, relative to 4° C. incubation): 97.2% | Relative activity (thermal stability) ([5]; 30° C. for 5 minutes, relative to 4° C. incubation): 95.4% | Relative activity (thermal stability) ([5]; 40° C. for 5 minutes, relative to 4° C. incubation): 84.6% | Relative activity (thermal stability) ([5]; 50° C. for 5 minutes, relative to 4° C. incubation): 29.2% | Relative activity (thermal stability) ([5]; 60° C. for 5 minutes, relative to 4° C. incubation): 0.0%
